B1: ADI-62113 Fab (Fab, V domains shown)
VH: QVQLQQSGAEVKKPGASVKLSCKASGYTFSVFPIHWVRQAPGQRLEWMGWHNAGDGDTKYSQKFQGRVTIISDTSASTAYMELSSLKSEDTAVYYCARAARPYYDRRGYFFRADYFQHWGQGTLVTVSS
VL: DIQVTQSPSSLSASVGDRVTITCQASQDIKNSLNWYQQKPGKAPKLLISDASNLETGVPSRFSGNGSGTDFTFTISSLQPEDIATYYCQQYDNLITFGPGTKVEIK
B2: ADI-62113 IgG (antibody, V domains shown)
VH: QVQLQQSGAEVKKPGASVKLSCKASGYTFSVFPIHWVRQAPGQRLEWMGWHNAGDGDTKYSQKFQGRVTIISDTSASTAYMELSSLKSEDTAVYYCARAARPYYDRRGYFFRADYFQHWGQGTLVTVSS
VL: DIQVTQSPSSLSASVGDRVTITCQASQDIKNSLNWYQQKPGKAPKLLISDASNLETGVPSRFSGNGSGTDFTFTISSLQPEDIATYYCQQYDNLITFGPGTKVEIK

What was measured:
[1] = molecular target: T1, SARS-CoV-2 spike receptor-binding domain (RBD), residues 333-529 (SARS-CoV-2 ancestral (Wuhan-Hu-1, …, UniProt P0DTC2)); assay: crystal structure; settings: both partners purified
T1 construct: also called SARS-CoV-2 RBD; wildtype RBD

[2] = molecular target: T2, SARS-CoV-2 WT RBD (Acro Biosystems, Cat #SPD-C52H3) (SARS-CoV-2 ancestral wildtype, UniProt P0DTC2); assay: ELISA; settings: both partners purified
T2 construct: also called wildtype RBD; ancestral wildtype SARS-CoV-2 RBD; source: bought: Acro Biosystems

| Binder | binding result [1] | binding result [2] |
| --- | --- | --- |
| B1 | binds |  |
| B2 |  | binds |

— publication PMC9336126 (Communications Biology, 2022)
